These results are taken from paper PMC11847480.

The assay has as its target gp130 (human (endogenous in TF-1)) (UniProt P40189).

Chain of gp130 (human (endogenous in TF-1)) (P40189 23-918): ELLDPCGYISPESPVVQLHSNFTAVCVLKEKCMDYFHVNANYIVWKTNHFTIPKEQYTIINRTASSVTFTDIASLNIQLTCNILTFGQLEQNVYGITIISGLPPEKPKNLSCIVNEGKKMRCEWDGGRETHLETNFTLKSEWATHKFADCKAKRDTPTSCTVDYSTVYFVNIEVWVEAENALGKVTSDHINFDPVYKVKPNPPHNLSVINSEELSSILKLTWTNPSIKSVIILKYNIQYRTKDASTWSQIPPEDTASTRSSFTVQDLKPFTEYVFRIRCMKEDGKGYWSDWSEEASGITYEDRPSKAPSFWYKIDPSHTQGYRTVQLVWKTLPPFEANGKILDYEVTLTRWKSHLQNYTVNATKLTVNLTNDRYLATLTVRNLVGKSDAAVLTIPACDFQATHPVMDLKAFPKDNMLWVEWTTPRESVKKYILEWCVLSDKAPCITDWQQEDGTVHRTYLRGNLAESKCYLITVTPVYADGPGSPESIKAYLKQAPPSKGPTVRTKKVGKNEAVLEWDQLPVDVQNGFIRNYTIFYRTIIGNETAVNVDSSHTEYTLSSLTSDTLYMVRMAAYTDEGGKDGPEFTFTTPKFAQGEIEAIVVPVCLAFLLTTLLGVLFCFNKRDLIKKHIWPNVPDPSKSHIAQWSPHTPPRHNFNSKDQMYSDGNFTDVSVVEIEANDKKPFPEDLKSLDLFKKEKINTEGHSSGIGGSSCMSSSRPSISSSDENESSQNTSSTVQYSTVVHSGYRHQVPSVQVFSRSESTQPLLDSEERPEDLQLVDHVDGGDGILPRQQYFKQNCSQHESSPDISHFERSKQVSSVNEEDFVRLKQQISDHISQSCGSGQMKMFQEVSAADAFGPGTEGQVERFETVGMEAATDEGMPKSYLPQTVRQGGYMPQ
Chain of LIF with truncation of the N-terminal region (P15018 23-202): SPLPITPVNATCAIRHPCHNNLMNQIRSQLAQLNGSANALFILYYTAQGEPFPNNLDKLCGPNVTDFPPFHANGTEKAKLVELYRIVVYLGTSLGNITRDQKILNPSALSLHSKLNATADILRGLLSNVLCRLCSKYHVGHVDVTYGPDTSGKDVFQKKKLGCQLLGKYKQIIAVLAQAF

Consider “LIF 2E (R37E and H38E) (from UniProt P15018 23-202) (ligand)”, for which the TF-1 cell proliferation, fold change of EC50 against wild-type LIF is 3 fold.

In turn, “LIF 3E (R37E, H38E and H41E) (from UniProt P15018 23-202) (ligand)” registered a TF-1 cell proliferation, fold change of EC50 against wild-type LIF of 4 fold.

As to “LIF with truncation of the N-terminal region (from UniProt P15018 23-202) (ligand)”, the TF-1 cell proliferation activity against wild-type LIF was 1 fold.
